From patent US20240374763A1, “DIAGNOSIS AND MONITORING USING EXTRADOMAIN-B FIBRONECTIN TARGETED PROBES” (Case Western Reserve University, priority 2020, published 2024)
No end group written: not given here.

Experiment: Relaxivity measurements
Type: physicochemical
Description: The T1 and T2 values of MT218 and Gd(HP-DO3A) solutions were determined using a 3T MRS 3000 scanner (MR Solutions, Guildford, UK). Solutions of MT218 were prepared at concentrations of 0, 0.25, 0.5, 1, and 2 mM in DPBS buffer (Gibco, Gaithersburg, MD). T1 values were measured using an inversion recovery-fast low angle shot (IR-FLASH) sequence (i=10 ms, TE=4 ms, FA=8°, echoes/frames=128, FOV=40 mm×40 mm, slice thickness =2 mm, number of averages=1, time delay=4000 ms, sample period=200, matrix=256×128). T2 values were obtained using a multi-echo multi-slice (MEMS) sequence (TE=15 ms, […], echoes=10, FOV: 40 mm×40 mm, slice thickness=1 mm, number of averages=1, matrix=256×192). The r1 and r2 relaxivities were calculated from the slopes of 1/T1 and 1/T2 vs. Gd concentration plots, respectively.

“ZD2-N3-Gd(HP-DO3A) (TVRTSAD; also: conjugated to Gd(HP-DO3A) by click reaction of alkynyl-ZD2 with N3-Gd(HP-DO3A), residue of attachment not given here, Gd complex) [MT218, EDB-FN-targeted MRI contrast agent; ZD2 peptide conjugated to the clinical macrocyclic agent Gd(HP-DO3A)]” showed a T1 relaxivity (at 3T (Example 1)) of 6.13 mM⁻¹ s⁻¹, a T1 relaxivity (at 3 T, DPBS buffer) of 6.07 ± 1.13 mM⁻¹ s⁻¹ and a T2 relaxivity (at 3 T, DPBS buffer) of 8.20 ± 0.18 s⁻¹ mM⁻¹.
